Data from the DeepSol protein solubility set.

Assay: soluble on expression in E. coli; label from the status in PepcDB or PDB records
With “GSSPQREPQRVSHEQFRAALQLVVDPGDPRSYLDNFIKIGEGSTGIVCIATVRSSGKLVAVKKMDLRKQQRRELLFNEVVIMRDYQHENVVEMYNSYLVGDELWVVMEFLEGGALTDIVTHTRMNEEQIAAVCLAVLQALSVLHAQGVIHRDIKSDSILLTHDGRVKLSDFGFCAQVSKEVPRRKSLVGTPYWMAPELISRLPYGPEVDIWSLGIMVIEMVDGEPPYFNEPPLKAMKMIRDNLPPRLKNLHKVSPSLKGFLDRLLVRDPAQRATAAELLKHPFLAKAGPPASIVPLMRQNRTR” the “soluble on expression in E. coli” value was “soluble”. In the case of “GSVRPVVGEIAANSIAAEAQIAPGTELKAVDGIETPDWDAVRLQMVDKIGDESTTITVAPFGSDQRRDVKLDLRHWAFEPDKEDPVSSLGIRPRGPQ”, the “soluble on expression in E. coli” value is reported as “soluble”. For “GVDWQDANSLQYVVQSAETLVPDVKPVAQAESVNRVNTGGEGLGGELRDQEYAIILETLVECNGRRKEMAEKLGISPRTLRYKLAKMRDAGIDIPS”, the “soluble on expression in E. coli” value was “not soluble”. For “GWNECNDKLRDISRSFWRGDQGYLKEFATRLMGSRDIYSAANWPYKLTVNYITYHDGFTLQDLVSYKHKHNEANGEENRDGHGDNRSENYGVEGETENIMIIATREKQKRNLIASLLFAFGIPHILTADVLSHSQDGNNNAYCQDNKTSWINWSETERKAHFKTWMAQMVANRHQYMVPFIRAFSGENRNNNRIFWRRTDGRLMEHDDWNRLSSVALHLGIGKDGQELVYLINQTNATARFKLPNERNQEWVTICDTNVRNLNPGHAEGEVLLSPTSMVILHYQPKPNSPQGEQLQS”, the “soluble on expression in E. coli” value was “not soluble”. With “GYQCQHNLNYWRFGDYLGIGCGSHGKLSFADGRIIRTTKVKHPRGYLAAYQNMVKPYLHTEQLVADEDRPFEFFMNRFRLMEACPKQDYVDTTGLPLSTIQDTIDWALEMGYLSETETHWQITEKGKLFLNDLLEAFMAEEDEE” the “soluble on expression in E. coli” value was “not soluble”. For “GYRALSFPDPLDSQPVQAIAFYPSTGSEHLSIIHGYRVEASEDAPIAMGRFPLLLLSHGNTGTPLALHDLATSLARQGFVVVAVVHPGDNDRDHSRLGSLSNLYGRPLQISEAISTALLDPVLAPYLNARQVGVIGYSAGGETALILAGAQPDLQRLRQYCLERPTDRDACKTQGELVADRDDLHAQADPRVGALMLMAPLSLMFGRHTLGDVHVPVLMYAGDDDQLLALDRNAEALARKLPQAPDYKLLAGAGHFVFMAPCSDEQREAAPLL”, the “soluble on expression in E. coli” value was “not soluble”. For “GYTLWNDQIVKDEEVKIDKEDRGYQFGDGVYEVVKVYNGEMFTVNEHIDRLYASAEKIRITIPYTKDKFHQLLHELVEKNELNTGHIYFQVTRGTSPRAHQFPENTVKPVIIGYTKENPRPLENLEKGVKATFVEDIRWLRCDIKSLNLLGAVLAKQEAHEKGCYEAILHRNNTVTEGSSSNVFGIKDGILYTHPANNMIAKGITRDVVIACANEINMPVKEIPFTTHEALKMDELFVTSTTSEITPVIEIDGKLIRDGKVGEWTRKLQKQFETKIPKPLHI”, the “soluble on expression in E. coli” value was “soluble”. In the case of “HDYLMKGNLSRLVPAIERELREADERRRRRQAEEAMHAQFNQISTIFDSLNALVYVVDMNSYELLYLNKFGAQLFGEAWEGRTCHDVLHGGRSTPCDFCTNDKLIMDGKALPPYIWEYQNSISSRWYQCIDKAIRWTD”, the “soluble on expression in E. coli” value is reported as “not soluble”. For “HEEHLMVPKGVEVYEINGPYFFGIATKFEEIMSELGDRPKVRIVRMRKVPFIDSTGIHNLTNLCEMSKKENIQIVLSGVNEKVHQILEKSGFNELLGKENICPNINVALEKAK”, the “soluble on expression in E. coli” value was “not soluble”. In the case of “HETLTSPPLREGRYIMAVTGCGPVEGVKEDGAFAFRGIPYAKPPVDRLRWKPAELIDDINMCWNDTLQTHNSSVVCTQRLGNGTTVGDEDCLYLDVVTPHVRYNNPLPVVVLIGAESLAGPSPGILRPSARYSRSHDVIFVRPNFRLGVFGFLALDALTKEAHPPTSGNYALTDIIAVLNWIKLNIVHFGGDPQSVTLLGHRAGATLVTLLVNSQKVKGLYTRAWASSGSAILPGKPLSESGKQNEQLMATLECADIQCLREASSERLWAATPDTWLHFPVDLPQPQEANASGSRHEWLVLDGDVVFEHPSDTWKREQANDKPVLVMGATAHEAHTEKLRELHANWTREEVRAYLENSQIGALGLTDEVIEKYNASSYASLVSIISDIRSVCPLLTNARQQPSVPFYVVTQGEGPDQLATVDADVQAILGRYEPHTVEQRRFVSAMQQLFYYYVSHGTVQSFVQNRRVINVGQDAQPEEDYLPCNYWISKDIVPRYARVD”, the “soluble on expression in E. coli” value is reported as “soluble”. For “HGNQLTAYTLRLGDNCLVLSQRLGEWCGHAPELEIDLALANIGLDLLGQARNFLSYAAELAGEGDEDTLAFTRDERQFSNLLLVEQPNGNFADTIARQYFIDAWHVALFTRLMESRDPQLAAISAKAIKEARYHLRFSRGWLERLGNGTDVSGQKMQQAINKLWRFTAELFDADEIDIALSEEGIAVDPRTLRAAWEAEVFAGINEATLNVPQEQAYRTGGKKGLHTEHLGPMLAEMQYLQRVLPGQQW”, the “soluble on expression in E. coli” value was “soluble”. For “HGSYIDITIDLKHYNGSVFDLRLSDYHPVKKVIDIAWQAQSVSMPPREGHWIRVVNKDKVFSGECKLSDCGITNGDRLEIL”, the “soluble on expression in E. coli” value was “soluble”. With “HHDITKVDTSGASEITARQDKLTLQGVDASHKLAEHDLVRMNKYKELITRVGQKHGLDPAIIAGIISRESRAGSALDHGWGDHGKGFGLMQVDKRYHKIVGAWDSEKHISQGTEILIEFIRRIQAKFPVWPKEHQLKGGISAYNAGDKNVRTYERMDVGTTGGDYSNDVVARSQWFKSQGY” the “soluble on expression in E. coli” value was “soluble”. In the case of “HHHHHHDYDIPTTENLYFQGAITLLTLIKTAEHWARQDIRTIEDSKLRALLTLCAVMTRKFSKSQLSLLCETHLRREGLGQDQAEPVLEVYQRLHSDKGGSFEAALWQQWDRQSLIMFITAFLNIALQLPCESSAVVVSGLRTLVPQSDNEE”, the “soluble on expression in E. coli” value is reported as “soluble”. With “HHHHHHMVRAIDEDCSQYEPIPGSQKAALGYNILTQEDAQSVYDASYYGGQCETVYNGEWRELRYDSTCERLYYGDDEKYFRKPYNFLKYHFEALADTGISSEFYDNANDLLSKVKKDKSDSFGVTIGIGPAGSPLLVGVGVSHSQDTSFLNELNKYNEKKFIFTRIFTKVQTAHFKMRKDDIMLDEGMLQSLMELPDQYNYGMYAKFINDYGTHYITSGSMGGIYEYILVIDKAKMESLGITSRDITTCFGGSLGIQYEDKINVGGGLSGDHCKKFGGGKTERARKAMAVEDIISRVRGGSSGWSGGLAQNRSTITYRSWGRSLKYNPVVIDFEMQPIHEVLRHTSLGPLEAKRQNLRRALDQYLM” the “soluble on expression in E. coli” value was “soluble”. For “HHHMFNAKYVAEATGNFITVMDALKLNYNAKDQLHPLLAELLISINRVTRDDFENRSKLIDWIVRINKLSIGDTLTETQIRELLFDLELAYKSFYALLD”, the “soluble on expression in E. coli” value was “soluble”. In the case of “HMDIRTITSSDYEMVTSVLNEWWGGRQLKEKLPRLFFEHFQDTSFITSEHNSMTGFLIGFQSQSDPETAYIHFSGVHPDFRKMQIGKQLYDVFIETVKQRGCTRVKCVTSPVNKVSIAYHTKLGFDIEKGTKTVNGISVFANYDGPGQDRVLFVKNI”, the “soluble on expression in E. coli” value is reported as “soluble”. In the case of “HMLLTTSRKPSQRTRSFSQRLSRIMGWRYINRGKMSLRDVLIEARGPVAVVSERHGNPARITFLDERGGERGYILFNPSFEMKKPELADKAVRVSSCPPGSEGLCNLMGLEVDESSSRDAWSIRTDEEYAWVMELMDARGTPAGFKLLIRDFRVGE”, the “soluble on expression in E. coli” value is reported as “soluble”. In the case of “HRYGDEIDALVEAFNRMRESLAVAYQQQQGMLQAVRESEALLRAIARRIPNGGVWVVDTDGRYIMFEGSLVESLGLSGQEALGRMPGDLFGEPLADRLVGCYRLALAGGTLSEEIEYRERVLWIQFAPLEDEHGAVMAAVALGID”, the “soluble on expression in E. coli” value is reported as “not soluble”. For “HTHWGYTGHDSPESWGNLSEEFRLCSTGKNQSPVNITETVSGKLPAIKVNYKPSMVDVENNGHTIQVNYPEGGNTLTVNGRTYTLKQFHFHVPSENQIKGRTFPMEAHFVHLDENKQPLVLAVLYEAGKTNGRLSSIWNVMPMTAGKVKLNQPFDASTLLPKRLKYYRFAGSLTTPPCTEGVSWLVLKTYDHIDQAQAEKFTRAVGSENNRPVQPLNARVVIE”, the “soluble on expression in E. coli” value was “soluble”. With “HYTSPTVIQAIYNAVEQMDFTPGTVLEPSMGIGNFFGMLPEKLAAAKLYGVELDDLTGRIARQLYQKADITVDGFERTDHPDDFFDLAVGNVPFGSYQVHDKRYDRQNLMIHDYFITKTLDKVRPGGIVAFITTKGTMDKKNSKAREALAQKADLLGAVRLPSNAFKANAGTEVTTDILFFQKRDRIPEKLPEWVEVGQTEDGIPLNRYFLDHPEMVLGTM” the “soluble on expression in E. coli” value was “not soluble”.
